The source of these data is publication doi:10.1101/2024.10.21.619555 (bioRxiv, 2024).

The data set “single-receptor tracking” concerns the molecule itself. As to the kind of experiment: single-receptor tracking.
Data set [1] concerns the molecule itself. As to the kind of experiment: single-molecule photobleaching.
The data set “SEC” concerns the molecule itself. The experiment in a line: SEC.
In the next data set the target is recombinant RBP4 (UniProt P02753 19-201). The experiment in a line: cross-linking.
Data set [2] concerns the molecule itself. As to the kind of experiment: single-molecule dual-color photobleaching.

B1: quantum dot-labeled DR6, wild type (receptor, UniProt O75509 42-655, looked up)
chain: QPEQKASNLIGTYRHVDRATGQVLTCDKCPAGTYVSEHCTNTSLRVCSSCPVGTFTRHENGIEKCHDCSQPCPWPMIEKLPCAALTDRECTCPPGMFQSNATCAPHTVCPVGWGVRKKGTETEDVRCKQCARGTFSDVPSSVMKCKAYTDCLSQNLVVIKPGTKETDNVCGTLPSFSSSTSPSPGTAIFPRPEHMETHEVPSSTYVPKGMNSTESNSSASVRPKVLSSIQEGTVPDNTSSARGKEDVNKTLPNLQVVNHQQGPHHRHILKLLPSMEATGGEKSSTPIKGPKRGHPRQNLHKHFDINEHLPWMIVLFLLLVLVVIVVCSIRKSSRTLKKGPRQDPSAIVEKAGLKKSMTPTQNREKWIYYCNGHGIDILKLVAAQVGSQWKDIYQFLCNASEREVAAFSNGYTADHERAYAALQHWTIRGPEASLAQLISALRQHRRNDVVEKIRGLMEDTTQLETDKLALPMSPSPLSPSPIPSPNAKLENSALLTVEPSPQDKNKGFFVDESEPLLRCDSTSSGSSALSRNGSFITKEKKDTVLRQVRLDPCDLQPIFDDMLHFLNPEELRVIEEIPQAEDKLDRLFEIIGVKSQEASQTLLDSVYSHLPDLL
modifications: quantum dot label
Take B1: in the data set “single-receptor tracking”, the “fold lower turnover into the monomeric state than DR6 ΔECD” value amounted to 2.1 fold and the “stoichiometry N” value was 2.

B2: SNAP-DR6 (receptor, UniProt O75509 42-655, looked up)
chain: QPEQKASNLIGTYRHVDRATGQVLTCDKCPAGTYVSEHCTNTSLRVCSSCPVGTFTRHENGIEKCHDCSQPCPWPMIEKLPCAALTDRECTCPPGMFQSNATCAPHTVCPVGWGVRKKGTETEDVRCKQCARGTFSDVPSSVMKCKAYTDCLSQNLVVIKPGTKETDNVCGTLPSFSSSTSPSPGTAIFPRPEHMETHEVPSSTYVPKGMNSTESNSSASVRPKVLSSIQEGTVPDNTSSARGKEDVNKTLPNLQVVNHQQGPHHRHILKLLPSMEATGGEKSSTPIKGPKRGHPRQNLHKHFDINEHLPWMIVLFLLLVLVVIVVCSIRKSSRTLKKGPRQDPSAIVEKAGLKKSMTPTQNREKWIYYCNGHGIDILKLVAAQVGSQWKDIYQFLCNASEREVAAFSNGYTADHERAYAALQHWTIRGPEASLAQLISALRQHRRNDVVEKIRGLMEDTTQLETDKLALPMSPSPLSPSPIPSPNAKLENSALLTVEPSPQDKNKGFFVDESEPLLRCDSTSSGSSALSRNGSFITKEKKDTVLRQVRLDPCDLQPIFDDMLHFLNPEELRVIEEIPQAEDKLDRLFEIIGVKSQEASQTLLDSVYSHLPDLL
modifications: SNAP-Surface Alexa Fluor 488 label
Consider B2, for which, in data set [1], the “stoichiometry N” value stood at 2.

B3: recombinant DR6 ECD (domain or fragment, UniProt O75509 42-349, looked up)
chain: QPEQKASNLIGTYRHVDRATGQVLTCDKCPAGTYVSEHCTNTSLRVCSSCPVGTFTRHENGIEKCHDCSQPCPWPMIEKLPCAALTDRECTCPPGMFQSNATCAPHTVCPVGWGVRKKGTETEDVRCKQCARGTFSDVPSSVMKCKAYTDCLSQNLVVIKPGTKETDNVCGTLPSFSSSTSPSPGTAIFPRPEHMETHEVPSSTYVPKGMNSTESNSSASVRPKVLSSIQEGTVPDNTSSARGKEDVNKTLPNLQVVNHQQGPHHRHILKLLPSMEATGGEKSSTPIKGPKRGHPRQNLHKHFDINEH
Take B3: the binding result in “SEC” is given as “binds”. Also, the “stoichiometry N” value in the data set with recombinant RBP4 worked out at 1.

B4: DR6 ECD-Halo (domain or fragment, UniProt O75509 42-349, looked up)
chain: QPEQKASNLIGTYRHVDRATGQVLTCDKCPAGTYVSEHCTNTSLRVCSSCPVGTFTRHENGIEKCHDCSQPCPWPMIEKLPCAALTDRECTCPPGMFQSNATCAPHTVCPVGWGVRKKGTETEDVRCKQCARGTFSDVPSSVMKCKAYTDCLSQNLVVIKPGTKETDNVCGTLPSFSSSTSPSPGTAIFPRPEHMETHEVPSSTYVPKGMNSTESNSSASVRPKVLSSIQEGTVPDNTSSARGKEDVNKTLPNLQVVNHQQGPHHRHILKLLPSMEATGGEKSSTPIKGPKRGHPRQNLHKHFDINEH
modifications: Alexa Fluor 660 label
Consider B4, for which the “stoichiometry N” value in data set [2] came out at 2.
